B1: SBD of Fbs1 (117–297), wild type [murine] / ribonuclease B [modified: a single high-mannose oligosaccharide; a single high-mannose oligosaccharide] [bovine] (parent)
chain 1: FYFLSKRRRNLLRNPCGEEDLEGWSDVEHGGDGWRVEELPGDNGVEFTQDDSVKKYFASSFEWCRKAQVIDLQAEGYWEELLDTTQPAIVVKDWYSGRTDAGSLYELTVRLLSENEDVLAEFATGQVAVPEDGSWMEISHTFIDYGPGVRFVRFEHGGQDSVYWKGWFGARVTNSSVWVEP
chain 2: KETAAAKFERQHMDSSTSAASSSNYCNQMMKSRNLTKDRCKPVNTFVHESLADVQAVCSQKNVACKNGQTNCYQSYSTMSITDCRETGSSKYPNCAYKTTQANKHIIVACEGNPYVPVHFDASV

Variants of: B1
Assay: pull-down
Conditions: with ribonuclease B [modified: a single high-mannose oligosaccharide, parent: 100, read off a plot

| percent of parent | Variant |
| --- | --- |
| 49% | chain 1 T99P |
| 100% | chain 1 A101C |
| 25% | chain 1 T99P A101C |
| 110% | chain 1 A101C L104K |
| 110% | chain 1 L104K |
| 48% | chain 1 T99P L104K |

From article PMC4603797, “The Structural Differences between a Glycoprotein Specific F-Box Protein Fbs1 and Its Homologous Protein FBG3” (PLoS ONE, 2015)
